The subject of assay [1] is MRL/lpr mice. Description: Proteinuria analysis in MRL/lpr mice (Albustix). The class given is in vivo, mouse. As to conditions: compared to the untreated mice. How it is done:
Proteinuria of the above mice was measured in fresh urine using Albustix (Bayer Diagnostics) and was semi-quantitatively estimated according to a […] recommended by the manufacturer (no proteinuria=0; traces=1; 1+=2; 2+=3; 3+=4; 4+=5).

In assay [2] the test system is MRL/lpr mice. Briefly: Cellularity analysis of peripheral blood in MRL/lpr mice. The class given is in vivo, mouse. As to conditions: 100 μg/100 μL single injection, 5 days after. How it is done: MRL/lpr mice were injected with 100 μg/100 μL of P140 or P140(MO) and cellularity (preipheral blood) was studied 5 days after this unique injection. The count includes all the leucocytes. In view of the low number of tested mice, a non parametric statistical test has been realised Mann-Whitney).

The target in the next assay is T1, HSC70 protein (Bos taurus, UniProt P19120).
T1 construct: purchased Stressgen
T1 sequence (P19120 whole entry): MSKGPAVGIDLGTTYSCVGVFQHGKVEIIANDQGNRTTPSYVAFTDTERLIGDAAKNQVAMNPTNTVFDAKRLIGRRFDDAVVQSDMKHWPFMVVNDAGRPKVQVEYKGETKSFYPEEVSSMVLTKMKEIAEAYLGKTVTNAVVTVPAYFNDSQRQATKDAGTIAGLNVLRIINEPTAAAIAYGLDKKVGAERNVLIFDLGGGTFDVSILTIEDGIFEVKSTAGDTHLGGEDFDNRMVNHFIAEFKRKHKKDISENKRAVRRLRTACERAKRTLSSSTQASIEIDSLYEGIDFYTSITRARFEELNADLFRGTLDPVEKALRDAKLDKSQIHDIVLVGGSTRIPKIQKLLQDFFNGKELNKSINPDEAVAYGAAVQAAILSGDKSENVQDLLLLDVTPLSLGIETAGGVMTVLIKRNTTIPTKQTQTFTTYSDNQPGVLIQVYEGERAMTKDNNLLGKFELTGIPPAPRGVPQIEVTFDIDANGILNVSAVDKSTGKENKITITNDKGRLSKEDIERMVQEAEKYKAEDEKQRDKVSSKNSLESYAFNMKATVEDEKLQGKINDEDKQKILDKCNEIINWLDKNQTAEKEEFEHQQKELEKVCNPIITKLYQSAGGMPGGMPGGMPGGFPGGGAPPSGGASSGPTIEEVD
Briefly: BIAcore binding of peptides to immobilized HSC70. More on the design: species or system bovine. How it is done: BIAcore 3000 system (Biacore AB) was used to evaluate the binding of P140 peptides to HSC70 protein (Page et al., 2009, and 2011). Sensor chip CM5, surfactant P20, amine coupling kit containing N-hydroxysuccinimide (NHS) and N-ethyl-N′-dimethylaminopropyl carbodiimide (EDC), 2-(2-pyridinyldithio)ethaneamine (PDEA) and ethanolamine were from Biacore AB. Biosensor assays were performed with HBS-EP buffer as running buffer (10 mM HEPES, 150 mM NaCl, 3 mM EDTA, 0.005% surfactant P20, pH 7.4). The compounds were diluted in the running buffer. The sensor chip surface was regenerated after each experiment by injecting 10 μL of 10 mM HCl. Recombinant bovine HSC70 (Stressgen) was immobilized on flow cells of a CM5 sensor chip through its thiol groups using 35 μL PDEA in 50 mM borate buffer, pH 8.3 on the NHS/EDC-activated matrix. Then, 35 μL of HSC70 (100 μg/mL in formate buffer, pH 4.3) were injected until a response of 13,000 response units (RU) corresponding to 13 ng/mm^2 of HSC70 was immobilized. Twenty μL of a 50 mM cysteine/1 M NaCl solution was used to saturate unoccupied sites on the chip. The direct binding measurement of P140 peptides to HSC70 was carried out at 25° C. with a constant flow rate of 20 μL/min. P140 peptide and analogues were injected in the flux at different concentrations for 3 min, followed by a dissociation phase of 3 min. The kinetic parameters were calculated using the BIAeval 3.1 software on a personal computer. Analysis was performed using the simple 1:1 Langmuir binding model. The specific binding profiles were obtained after subtracting the response signal from the control empty channel and from blank-buffer injection. The fitting to each model was judged by the χ^2 value and randomness of residue distribution compared to the theoretical model.
Background: Surface plasmon resonance follows binding to a sensor surface in real time, without labels.

In assay [3] the test system is MRL/lpr mice. Briefly: Survival analysis in MRL/lpr lupus mice. The class given is in vivo, mouse. As to conditions: female MRL/lpr mice, intravenous, 20 mice per group; NaCl control 25 weeks. Here is the method: It has been determined that this mouse strain carries a mutation in the fas gene. Also, the MRL/lpr is a useful model to study behavioural and cognitive deficits found in autoimmune diseases and the efficacy of immunosuppressive agents [Monneaux et al., 2003, Eur. J. Immunol. 33, 287-296].
Five-week-old female MRL/lpr mice received P140 or peptide P140(MO) intravenously as described (Monneaux et al., 2003, Eur. J. Immunol. 33, 287-296). All experimental protocols were carried out with the approval of the local Institutional Animal Care and Use Committee (CREMEAS). As control, mice were injected with NaCl.
Twenty mice were used for each peptide or NaCl.
Statistical tests were performed using GraphPad Prism version 5.0. The two-way ANOVA test was used to analyze statistical significance of proteinuria differences between control and peptide-treated groups of mice. Survival of control and P140 analogue-treated female MRL/lpr mice was analyzed by the Kaplan-Meier method, and the significance of differences was determined by the log-rank test. For the other variables, statistical significance was assessed using the Student's t-test. p values less than 0.05 were considered significant.

Assay [4] has as its target Recombinant bovine HSC70 (Stressgen) (bovine) (UniProt P19120). Description: SPR, BIAcore 3000; HSC70 immobilised, peptide injected; 1:1 Langmuir fit; row for analyte at 25 µM.
Assay [5] shares this target. Description: SPR, BIAcore 3000; HSC70 immobilised, peptide injected at 3.12 µM; 1:1 Langmuir fit.
The target is the same in assay [6]. Briefly: SPR, BIAcore 3000; HSC70 immobilised, peptide injected at 6.25 µM; 1:1 Langmuir fit.
For assay [7] the target is unchanged. Description: SPR, BIAcore 3000; HSC70 immobilised, peptide injected; 1:1 Langmuir fit; row for analyte at 6.25 µM.
For assay [8] the target is unchanged. Description: SPR, BIAcore 3000; HSC70 immobilised, peptide injected; 1:1 Langmuir fit; row for analyte at 1.56 µM.
Assay [9] has the same target. Briefly: SPR, BIAcore 3000; HSC70 immobilised, peptide injected at 1.56 µM; 1:1 Langmuir fit.
For assay [10] the target is unchanged. Description: SPR, BIAcore 3000; HSC70 immobilised, peptide injected at 12.5 µM; 1:1 Langmuir fit.
For assay [11] the target is unchanged. Briefly: SPR, BIAcore 3000; HSC70 immobilised, peptide injected; 1:1 Langmuir fit; row for analyte at 12.5 µM.
Assay [12] has the same target. Briefly: SPR, BIAcore 3000; HSC70 immobilised, peptide injected; 1:1 Langmuir fit; row for analyte at 3.12 µM.
Assay [13] shares this target. Briefly: SPR, BIAcore 3000; HSC70 immobilised, peptide injected at 25 µM; 1:1 Langmuir fit.

Non-standard residues stand in square brackets, D forms with d. Residues, ends and D or L forms follow the SMILES beside them. No end group written: not given here. Met(O) = CS(=O)CC[C@H](N)C(=O)O; pS = N[C@@H](COP(=O)(O)O)C(=O)O

Sequence of Recombinant bovine HSC70 (Stressgen) (bovine) (P19120 whole entry): as above

Turning to `CC[C@H](C)[C@H](NC(=O)[C@H](Cc1ccccc1)NC(=O)[C@H](C)NC(=O)[C@H](Cc1ccc(O)cc1)NC(=O)CNC(=O)[C@H](CCCNC(=N)N)NC(=O)[C@@H]1CCCN1C(=O)[C@H](CCCCN)NC(=O)CNC(=O)[C@H](COP(=O)(O)O)NC(=O)[C@H](CCCNC(=N)N)NC(=O)[C@H](CCCCN)NC(=O)[C@H](CO)NC(=O)[C@H](Cc1ccc(O)cc1)NC(=O)[C@@H](NC(=O)[C@H](CC[S+](C)[O-])NC(=O)[C@H](Cc1c[nH]cn1)NC(=O)[C@@H](NC(=O)[C@@H](N)CCCNC(=N)N)[C@@H](C)CC)C(C)C)C(=O)N[C@@H](CCC(=O)O)C(=O)N[C@@H](Cc1ccc(O)cc1)C(=O)O` (stereo partly drawn) [P140(MO), RIHM(O)VYSKRS(PO3H2)GKPRGYAFIEY] (H-RIH[Met(O)]VYSKR[pS]GKPRGYAFIEY-OH), the Proteinuria result with MRL/lpr mice [1] is “less important and appears lately”. Also, the Peripheral hypercellularity entry with MRL/lpr mice [2] was “decrease peripheral hypercellularity”. For the same molecule, at HSC70 protein (25° C., 1:1 Langmuir model), the “Rmax (RU)” value came to 39 RU. Also, the kon at HSC70 protein (25° C., 1:1 Langmuir model, analyte 1.56-25 μM, read-out: ka) worked out at 1150 M⁻¹ s⁻¹. Also, on HSC70 protein (P140 compared with P140 M(O)), the “Affinity for HSC70, oxidized vs non-oxidized peptide (in words)” value is on record as “not statistically different”. For the same molecule, the “Req (RU)” value on HSC70 protein (peptide 1.56 μM) is 17.6 RU; on HSC70 protein (peptide 3.12 μM), 24.2 RU; at HSC70 protein (peptide 6.25 μM), 29.9 RU; at HSC70 protein (peptide 12.5 μM), 33.9 RU; on HSC70 protein (peptide 25 μM), 36.3 RU. For the same molecule, the “kobs” value at HSC70 protein (peptide 12.5 μM) was determined as 0.0166 s⁻¹; on HSC70 protein (peptide 25 μM) it was 0.031 s⁻¹. In addition, the Median survival with MRL/lpr mice [3] is given as above 40 weeks.
RIH[Met(O)]VYSKR[pS]GKPRGYAFIEY: the Ka in [4], in assay [7], in assay [8], in [11] and in assay [12] was 524000 M⁻¹ each time. Moreover, the Kd in [4], in assay [7], in assay [8], in assay [11] and in [12] was 1.91 µM throughout. Besides, the koff in assay [4], in assay [7], in assay [8], in assay [11] and in [12] was 0.0022 s⁻¹ throughout. Moreover, the Req in assay [5] was determined as 24.2 RU; in assay [6], 29.9 RU; in [9], 17.6 RU; in [10], 33.9 RU; in assay [13], 36.3 RU. Besides, the kobs in [5] is 0.0058 s⁻¹; in assay [6], 0.0094 s⁻¹; in assay [9] it was 0.004 s⁻¹; in assay [10], 0.0166 s⁻¹; in assay [13], 0.031 s⁻¹.
Consider RIHMVYSKR[pS]GKPRGYAFIEY [P140 peptide (SEQ ID NO: 1 in which serine at position 10 is phosphorylated; SEQ ID NO: 4)], for which the Ka in assay [4], in [7], in [8], in [11] and in assay [12] was 144000 M⁻¹ throughout. Also, the Kd in assay [4], in [7], in assay [8], in assay [11] and in assay [12] was 6.94 µM in each case. In addition, the koff in [4], in assay [7], in assay [8], in assay [11] and in assay [12] was 0.00312 s⁻¹ in each case. For the same molecule, the Req in assay [5] amounted to 25.8 RU; in [6], 39.5 RU; in assay [9] it was 15.3 RU; in assay [10] it was 53.6 RU; in assay [13] it was 65.2 RU. Also, the kobs worked out at 0.00452 s⁻¹ in assay [5]; 0.00593 s⁻¹ in assay [6]; 0.00382 s⁻¹ in assay [9]; 0.00874 s⁻¹ in [10]; 0.0144 s⁻¹ in [13].

Broadly, the Kd is the concentration at which binding is half-saturated. As usually defined, the koff is a measure of how fast the partners let go of each other.

The values are drawn from US20210308211A1, “METHOD OF TREATING VIRAL INFECTIONS” (priority 2020, published 2021).
